Consider 1 molecule from article PMC8450086, “Cooperative DNA binding mediated by KicGAS/ORF52 oligomerization allows inhibition of DNA-induced phase separation and activation of cGAS”.

This series has as its target T1, KicGAS (Kaposi sarcoma-associated herpesvirus …, UniProt Q2HR80 1-131).
T1 sequence: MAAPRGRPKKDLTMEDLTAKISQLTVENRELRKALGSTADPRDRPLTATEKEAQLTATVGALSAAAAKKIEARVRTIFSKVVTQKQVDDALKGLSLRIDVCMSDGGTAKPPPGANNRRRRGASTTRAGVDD
Kind of series: fluorescence polarization; Hill n 2.36; EMSA: 20 mM Tris-HCl pH 7.4, 150 mM NaCl, 10% glycerol, on ice, 20 nM FAM-DNA, gel at 4 C; FP: 400 pg/ul FAM-DNA, buffer and temperature not stated; Hill fits. The settings on record: protein: recombinant; tags: Avi-His6-SUMO removed (tag-free); label: 5' FAM sense strand; blunt. Background: Fluorescence polarisation rises when a labelled molecule tumbles more slowly, as on binding a larger partner.

B1: VACV72 (dsDNA)
DNA 1: ATCCATCAGAAAGAGGTTTAATATTTTTGTGAGACCATCGAAGAGAGAAAGAGATAAAACTTTTTTACGACT
DNA 2: AGTCGTAAAAAAGTTTTATCTCTTTCTCTCTTCGATGGTCTCACAAAAATATTAAACCTCTTTCTGATGGAT
For the molecule B1, the Kd (commonly a measure of binding affinity in units of concentration) amounted to 130 ± 10 nM.
